Experimental data taken from US20250262210A1 (TRUSTEES OF COLUMBIA UNIVERSITY IN THE CITY OF NEW YORK, published 2025).

Assays:
[1] = target: T1, WDR6 (human, UniProt Q9NNW5 1-1121); experiment: IP/MS, LZTR1 wild type-FLAG, U87
T1 sequence (looked up): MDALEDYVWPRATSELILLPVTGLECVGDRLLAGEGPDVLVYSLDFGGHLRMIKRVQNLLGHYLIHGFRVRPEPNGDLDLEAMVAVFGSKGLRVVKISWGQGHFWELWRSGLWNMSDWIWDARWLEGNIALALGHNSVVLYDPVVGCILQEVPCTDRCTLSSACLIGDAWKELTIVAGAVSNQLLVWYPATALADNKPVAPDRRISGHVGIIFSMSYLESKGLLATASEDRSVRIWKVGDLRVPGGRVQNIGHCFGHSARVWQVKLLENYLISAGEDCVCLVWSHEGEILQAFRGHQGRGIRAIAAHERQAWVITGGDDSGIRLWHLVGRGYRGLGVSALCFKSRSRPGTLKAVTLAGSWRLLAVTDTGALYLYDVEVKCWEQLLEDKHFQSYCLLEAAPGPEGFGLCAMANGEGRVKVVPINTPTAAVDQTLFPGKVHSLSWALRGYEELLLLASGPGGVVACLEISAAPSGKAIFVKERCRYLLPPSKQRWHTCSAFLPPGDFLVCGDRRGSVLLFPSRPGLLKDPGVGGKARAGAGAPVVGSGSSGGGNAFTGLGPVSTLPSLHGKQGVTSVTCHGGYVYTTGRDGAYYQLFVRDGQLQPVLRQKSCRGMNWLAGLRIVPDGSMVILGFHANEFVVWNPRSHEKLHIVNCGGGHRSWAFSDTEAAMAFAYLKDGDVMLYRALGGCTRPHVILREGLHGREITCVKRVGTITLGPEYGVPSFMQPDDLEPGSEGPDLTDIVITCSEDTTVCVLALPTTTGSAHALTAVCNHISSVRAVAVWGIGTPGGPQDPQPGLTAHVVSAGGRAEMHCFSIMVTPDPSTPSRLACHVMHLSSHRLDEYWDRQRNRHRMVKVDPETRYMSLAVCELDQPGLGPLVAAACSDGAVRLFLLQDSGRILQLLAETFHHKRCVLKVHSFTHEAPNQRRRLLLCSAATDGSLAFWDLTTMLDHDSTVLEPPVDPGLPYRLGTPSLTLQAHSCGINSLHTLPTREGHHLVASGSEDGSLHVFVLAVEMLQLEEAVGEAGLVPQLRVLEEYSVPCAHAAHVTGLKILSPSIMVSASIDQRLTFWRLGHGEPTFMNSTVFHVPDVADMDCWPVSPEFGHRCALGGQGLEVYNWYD
In short: (§1)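 Extracted peptides in 3% acetonitrile/0.1% formic acid ran on a 50 cm C18 column into an Orbitrap Fusion, with MaxQuant identification and spectral counting.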

[2] = target: TRIO (human, UniProt O75962 1-3097, limits assumed); experiment: IP/MS, LZTR1 wild type-FLAG, U87
In short: as §1

- binding result [1]: binds
- binding result [2]: binds
B1: LZTR1-FLAG (other, human, UniProt Q8N653 1-840, looked up)
chain: MAGPGSTGGQIGAAALAGGARSKVAPSVDFDHSCSDSVEYLTLNFGPFETVHRWRRLPPCDEFVGARRSKHTVVAYKDAIYVFGGDNGKTMLNDLLRFDVKDCSWCRAFTTGTPPAPRYHHSAVVYGSSMFVFGGYTGDIYSNSNLKNKNDLFEYKFATGQWTEWKIEGRLPVARSAHGATVYSDKLWIFAGYDGNARLNDMWTIGLQDRELTCWEEVAQSGEIPPSCCNFPVAVCRDKMFVFSGQSGAKITNNLFQFEFKDKTWTRIPTEHLLRGSPPPPQRRYGHTMVAFDRHLYVFGGAADNTLPNELHCYDVDFQTWEVVQPSSDSEVGGAEVPERACASEEVPTLTYEERVGFKKSRDVFGLDFGTTSAKQPTQPASELPSGRLFHAAAVISDAMYIFGGTVDNNIRSGEMYRFQFSCYPKCTLHEDYGRLWESRQFCDVEFVLGEKEECVQGHVAIVTARSRWLRRKITQARERLAQKLEQEAAPVPREAPGVAAGGARPPLLHVAIREAEARPFEVLMQFLYTDKIKYPRKGHVEDVLLIMDVYKLALSFQLCRLEQLCRQYIEASVDLQNVLVVCESAARLQLSQLKEHCLNFVVKESHFNQVIMMKEFERLSSPLIVEIVRRKQQPPPRTPLDQPVDIGTSLIQDMKAYLEGAGAEFCDITLLLDGHPRPAHKAILAARSSYFEAMFRSFMPEDGQVNISIGEMVPSRQAFESMLRYIYYGEVNMPPEDSLYLFAAPYYYGFYNNRLQAYCKQNLEMNVTVQNVLQILEAADKTQALDMKRHCLHIIVHQFTKVSKLPTLRSLSQQLLLDIIDSLASHISDKQCAELGADI
notes: Expressed in HEK 293T, HeLa or U87 cells; used as cell lysate; also called LZTR1 wild type-FLAG; LZTR1 WT; not shown: FLAG tag at the C-terminus
